Measurements taken from paper PMC11117068 (2024).

Assays:
complement C3b [1] = biological target: T1, complement C3b (UniProt P01024 749-1663; P01024 749-1663); assay: SPR
complement C3b [2] = biological target: T1, complement C3b; assay: SPR; remark: listed apart in the source

T1 sequence (P01024 23-667, chain 1 of 2): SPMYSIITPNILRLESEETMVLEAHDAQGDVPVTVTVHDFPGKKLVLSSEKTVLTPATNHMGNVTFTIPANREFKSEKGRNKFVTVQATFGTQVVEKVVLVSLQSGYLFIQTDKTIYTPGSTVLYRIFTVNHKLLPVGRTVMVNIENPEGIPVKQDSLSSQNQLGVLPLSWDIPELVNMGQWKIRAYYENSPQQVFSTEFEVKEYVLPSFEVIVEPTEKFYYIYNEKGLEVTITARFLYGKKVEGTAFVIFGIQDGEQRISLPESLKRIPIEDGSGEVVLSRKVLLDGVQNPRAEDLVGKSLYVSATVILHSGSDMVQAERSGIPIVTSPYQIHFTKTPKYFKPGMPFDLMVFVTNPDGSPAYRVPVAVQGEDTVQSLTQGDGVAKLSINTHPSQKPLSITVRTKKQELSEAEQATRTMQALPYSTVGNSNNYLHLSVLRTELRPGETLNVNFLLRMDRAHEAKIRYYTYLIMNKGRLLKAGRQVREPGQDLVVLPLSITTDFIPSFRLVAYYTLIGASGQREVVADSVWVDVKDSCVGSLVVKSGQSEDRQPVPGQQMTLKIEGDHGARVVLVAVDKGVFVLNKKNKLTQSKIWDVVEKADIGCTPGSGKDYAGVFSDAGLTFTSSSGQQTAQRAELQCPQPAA
T1 sequence (P01024 749-1663, chain 2 of 2): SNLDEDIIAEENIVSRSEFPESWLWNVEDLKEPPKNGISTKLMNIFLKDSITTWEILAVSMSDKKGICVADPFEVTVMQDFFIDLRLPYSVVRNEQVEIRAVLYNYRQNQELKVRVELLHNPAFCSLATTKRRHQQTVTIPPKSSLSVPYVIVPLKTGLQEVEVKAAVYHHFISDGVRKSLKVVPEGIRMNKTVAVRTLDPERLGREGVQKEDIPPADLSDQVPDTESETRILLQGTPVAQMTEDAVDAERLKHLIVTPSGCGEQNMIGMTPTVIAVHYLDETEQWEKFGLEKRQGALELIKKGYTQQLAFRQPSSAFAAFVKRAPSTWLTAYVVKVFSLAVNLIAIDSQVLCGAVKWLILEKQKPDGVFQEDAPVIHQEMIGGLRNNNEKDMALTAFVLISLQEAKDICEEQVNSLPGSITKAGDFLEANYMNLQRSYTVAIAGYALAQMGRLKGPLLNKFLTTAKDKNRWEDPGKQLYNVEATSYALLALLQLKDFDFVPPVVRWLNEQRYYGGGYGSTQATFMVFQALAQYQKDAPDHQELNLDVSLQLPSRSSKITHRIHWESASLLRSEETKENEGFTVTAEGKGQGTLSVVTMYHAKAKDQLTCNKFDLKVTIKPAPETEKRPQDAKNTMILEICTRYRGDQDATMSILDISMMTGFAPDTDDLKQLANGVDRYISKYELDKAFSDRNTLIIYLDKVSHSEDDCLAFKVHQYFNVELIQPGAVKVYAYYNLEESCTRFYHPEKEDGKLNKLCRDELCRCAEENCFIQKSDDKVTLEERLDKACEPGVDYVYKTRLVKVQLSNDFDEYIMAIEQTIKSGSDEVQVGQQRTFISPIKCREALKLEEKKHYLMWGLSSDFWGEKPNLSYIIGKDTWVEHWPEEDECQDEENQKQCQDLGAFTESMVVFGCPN

B1: serum-derived human factor H (sd-FH) (natural protein)
chain: EDCNELPPRRNTEILTGSWSDQTYPEGTQAIYKCRPGYRSLGNVIMVCRKGEWVALNPLRKCQKRPCGHPGDTPFGTFTLTGGNVFEYGVKAVYTCNEGYQLLGEINYRECDTDGWTNDIPICEVVKCLPVTAPENGKIVSSAMEPDREYHFGQAVRFVCNSGYKIEGDEEMHCSDDGFWSKEKPKCVEISCKSPDVINGSPISQKIIYKENERFQYKCNMGYEYSERGDAVCTESGWRPLPSCEEKSCDNPYIPNGDYSPLRIKHRTGDEITYQCRNGFYPATRGNTAKCTSTGWIPAPRCTLKPCDYPDIKHGGLYHENMRRPYFPVAVGKYYSYYCDEHFETPSGSYWDHIHCTQDGWSPAVPCLRKCYFPYLENGYNQNYGRKFVQGKSIDVACHPGYALPKAQTTVTCMENGWSPTPRCIRVKTCSKSSIDIENGFISESQYTYALKEKAKYQCKLGYVTADGETSGSITCGKDGWSAQPTCIKSCDIPVFMNARTKNDFTWFKLNDTLDYECHDGYESNTGSTTGSIVCGYNGWSDLPICYERECELPKIDVHLVPDRKKDQYKVGEVLKFSCKPGFTIVGPNSVQCYHFGLSPDLPICKEQVQSCGPPPELLNGNVKEKTKEEYGHSEVVEYYCNPRFLMKGPNKIQCVDGEWTTLPVCIVEESTCGDIPELEHGWAQLSSPPYYYGDSVEFNCSESFTMIGHRSITCIHGVWTQLPQCVAIDKLKKCKSSNLIILEEHLKNKKEFDHNSNIRYRCRGKEGWIHTVCINGRWDPEVNCSMAQIQLCPPPPQIPNSHNMTTTLNYRDGEKVSVLCQENYLIQEGEEITCKDGRWQSIPLCVEKIPCSQPPQIEHGTINSSRSSQESYAHGTKLSYTCEGGFRISEENETTCYMGKWSSPPQCEGLPCKSPPEISHGVVAHMSDSYQYGEEVTYKCFEGFGIDGPAIAKCLGEKWSHPPSCIKTDCLSLPSFENAIPMGEKKDVYKAGEQVTYTCATYYKMDGASNVTCINSRWTGRPTCRDTSCVNPPTVQNAYIVSRQMSKYPSGERVRYQCRSPYEMFGDEEVMCLNGNWTEPPQCKDSTGKCGPPPPIDNGDITSFPLSVYAPASSVEYQCQNLYQLEGNKRITCRNGQWSEPPKCLHPCVISREIMENYNIALRWTAKQKLYSRTGESVEFVCKRGYRLSSRSHTLRTTCWDGKLEYPTCAKR
modifications: native N-linked glycans, diantennary and a small number of triantennary sialylated glycans
With B1 the Kd (complement C3b [1]) was 11.3 nM and the koff (complement C3b [2]) was 0.0233 s⁻¹.
